Reference: the DeepSol protein solubility set

assay: soluble on expression in E. coli; label from the status in PepcDB or PDB records

Soluble on expression in E. coli, soluble:
MAHHHHHHMTIRVAINGYGRIGRNTLRAFYENGKKHDLEIVAINDLGDAKTNAHLTQYDTAHGKFPGEVSVDGDYLVVNGDRIRVLANRNPAELPWGELGVDVVMECTGFFTSKEKASAHLKGGAKKVIISAPGGKDVDATIVYGVNHDVLKAEHTVISNASCTTNCLAPLVKPLNDKIGLETGLMTTIHAYTNDQVLTDVYHEDLRRARSATHSQIPTKTGAAAAVGLVLPELNGKLDGYAIRVPTINVSIVDLSFIAKRDTTAAEVNAIMKEASEGALKGILGYNEAPLVSIDFNHNPASSTFDATLTKVSGRLVKVSSWYDNEWGFSNRMLDTAIALANAK
MAIKSVLFLRSNPVAPDPRVAKEAQALADAGYKVGVVAWDRTGELPKVEETPFGLVERLPIKGSFRSGLANLLPLVRFNLALLWHLIKRRSTYDAIHACDFDTVLPALVAAKLLGKKVVYDVFDFYADMLRATPGWIKSIIKKVDLRLMGWVDAVILADESRVKQIQGARPKRLTFIYNSPPIEDPFPLPPAPPPLRIAYVGLLQKERGILQVIELLRRHPEWELDLGGFGGDEEEIRRAVADLPNVRYHGRVPYEKALELMSNAHLLFATYDPSIPNHRYSSANKLFEAMAIGRPIVVARDTGMDQLVQQYALGFVVEYGNLAALEDAFARVASWDLQRFEEFSQKAQEVYVTRFAWRIMKERLIALYRKLEE
MQDSKIPPFSEAKRMKIPTPKQPLTQLPPRIGKKVSNRSKSNQVHAISHQLEMSPNSDSSPGNEYRALRRKYLLLEEDSFALERELKEAEDEVKALEDEKLELLDKLVVMEGLVDP

Soluble on expression in E. coli, not soluble:
MSLESILDVLSVMYINAQLPREQRHRWRLLFSSELHGHSFSQLCGHITHRGPCVAVLEDHDKHVFGGFASCSWEVKPQFQGDNRCFLFSICPSMAVYTHTGYNDHYMYLNHGQQTIPNGLGMGGQHNYFGLWVDVDFGKGHSRAKPTCTTYNSPQLSAQENFQFDKMEVWAVGDPSEEQLAKGNKSILDADPEAQALLEISGHSRHSEGLREVPDDEGHHHHHH
MPLRILHTSDWHLGRSLFGRSRLHEFEAFLDWLAGTVESRGIELLVVAGDIFDTTTPGNATQKLYYQFLNRIALTPGSPCRHVVITSGNHDSPTFLDAPKELLRAFDVHVLGATTGDPADEVRLLRDRQGSPEAIVCAVPFLRDRDIRTVEPGESLEDKIRKLSDGVSLHYAEVARIAAERRRSLGADIPVIAMGHLFTAGCVTVEEDGVREIYAGALSIVCSTAFPPVFDYVALGHMHVPQRVDKTEHMRYCGSPIPMGFGEAKQQKLVLQVDFEGREPTVTEIEVPCFQPLERLAGSLDELSAAIAALRSAGSNAWLEIDYRGDEAPATVQEAMEQAVAGSLLEIRRIRNNRPLQQALRHSAANETLQQLDPEAVFNRCLEAYGTDESLRPALVESYREVLRSIREEDVMAEKEGKS
MGSDKIHHHHHHAKPVTSETMAAKTVGLQIYSLGKELYADVPGGLKKIKQMGYTNLELAGYKEGKIGGVDMMEFKKMVDDAGLKITSSHVNPPVREYTKANRSQISEYWKKTADDHAKLGVKYLIQPGQPSTRSTEETAFVCEIFNEAGKIVKAAGIPFGYHNHEMEFAKVNPGSTEAKLGRRVKGDCIYELFLKNTDPSLVFFEMDVYWAVMGQQDPIEWLKKYPNRIKVLHIKDRAILGESGMMNFENIFRQAYANGIKDYFVELEGMPDGRSQFEGVKGCVDYLLKAPFVK
MSLIYFFMVDAVELSRKYEGKIEIYPKVPITSYNDFALIYTPGVAEVSKAIYKDPDKSFELTSRWNTIAVVTDGTRVLGLGNIGPTAAMPVMEGKSLLFKYLGGVDAIPLPINVKSADEFTNVVKALETSFGGINLEDIESPKCFYILEKLQSMLNIPVWHDDQQGTAAAILAGLINAMILTNKDPKESKVVFYGAGASNIAAARILAKYGFKYENIVMIDSKGPLYADREDVDHLMLHHKWKYELAIKTNKWEAKEIKDAFSGADAVVAASTPGPNVIKKEWISLMNKEAIVFALANPVPEIWPQDAKEAGAKIVATGRSDFPNQVNNSLIFPAIFRGVLDSRAKAITDEMTIAASEALAKYARDRGINENYIIPRMDEWEAFYEEAAAVASKAVELGLARVKKSREEFREIAKERIIRARKIMNLVISTWSPEGHHHHHH
MQHSLRSDGAGFYQLACCEYSLSMRKIALSGGFWGGVCRMAMKSIFFMFHQGNRRLTLTAVQGILLRFSLF
